Results reported in the Human Domainome abundance scans (Beltran et al. 2025).
± gives the uncertainty stated by the source.

B1: Ankyrin-3, residues 4094 to 4171; numbered along this chain, Q12955 (parent)
chain: MAIVADHLGLSWTELARELNFSVDEINQIRVENPNSLISQSFMLLKKWVTRDGKNATTDALTSVLTKINRIDIVTLLE

Variants of: B1
Assay: abundance fitness (aPCA) (normalised: wild type 0, dead -1); higher = more abundant; growth selection in yeast, the domain comes from the species named
Details: Homo sapiens
With MAIVADHLGLSWTEFARELNFSVDEINQIRVENPNSLISQSFMLLKKWVTRDGKNATTDALTSVLTKINRIDIVTLLE the abundance fitness was -0.149 ± 0.096. MAIVADHLGLSWTESARELNFSVDEINQIRVENPNSLISQSFMLLKKWVTRDGKNATTDALTSVLTKINRIDIVTLLE gave an abundance fitness of -0.772 ± 0.12. In the case of MAIVADHLGLSWTEPARELNFSVDEINQIRVENPNSLISQSFMLLKKWVTRDGKNATTDALTSVLTKINRIDIVTLLE, the abundance fitness is reported as -0.741 ± 0.15. With MAIVADHLGLSWTEIARELNFSVDEINQIRVENPNSLISQSFMLLKKWVTRDGKNATTDALTSVLTKINRIDIVTLLE the abundance fitness was -0.387 ± 0.2. In the case of MAIVADHLGLSWTETARELNFSVDEINQIRVENPNSLISQSFMLLKKWVTRDGKNATTDALTSVLTKINRIDIVTLLE, the abundance fitness is reported as -0.891 ± 0.3. Variant MAIVADHLGLSWTECARELNFSVDEINQIRVENPNSLISQSFMLLKKWVTRDGKNATTDALTSVLTKINRIDIVTLLE has an abundance fitness of -0.433 ± 0.13. Work on MAIVADHLGLSWKELARELNFSVDEINQIRVENPNSLISQSFMLLKKWVTRDGKNATTDALTSVLTKINRIDIVTLLE yielded an abundance fitness of -0.554 ± 0.21. Variant MAIVADHLGLSWWELARELNFSVDEINQIRVENPNSLISQSFMLLKKWVTRDGKNATTDALTSVLTKINRIDIVTLLE has an abundance fitness of -0.707 ± 0.1. With MAIVADHLGLSWLELARELNFSVDEINQIRVENPNSLISQSFMLLKKWVTRDGKNATTDALTSVLTKINRIDIVTLLE the abundance fitness was -0.104 ± 0.049. For MAIVADHLGLSWCELARELNFSVDEINQIRVENPNSLISQSFMLLKKWVTRDGKNATTDALTSVLTKINRIDIVTLLE, the abundance fitness was -0.546 ± 0.14. For MAIVADHLGLSWIELARELNFSVDEINQIRVENPNSLISQSFMLLKKWVTRDGKNATTDALTSVLTKINRIDIVTLLE, the abundance fitness was -0.02 ± 0.1. For MAIVADHLGLSWQELARELNFSVDEINQIRVENPNSLISQSFMLLKKWVTRDGKNATTDALTSVLTKINRIDIVTLLE, the abundance fitness was -0.201 ± 0.11. For MAIVADHLGLSWAELARELNFSVDEINQIRVENPNSLISQSFMLLKKWVTRDGKNATTDALTSVLTKINRIDIVTLLE, the abundance fitness was -0.153 ± 0.064. In the case of MAIVADHLGLSWPELARELNFSVDEINQIRVENPNSLISQSFMLLKKWVTRDGKNATTDALTSVLTKINRIDIVTLLE, the abundance fitness is reported as 0.101 ± 0.058. MAIVADHLGLSWEELARELNFSVDEINQIRVENPNSLISQSFMLLKKWVTRDGKNATTDALTSVLTKINRIDIVTLLE showed an abundance fitness of 0.005 ± 0.084. In the case of MAIVADHLGLSWGELARELNFSVDEINQIRVENPNSLISQSFMLLKKWVTRDGKNATTDALTSVLTKINRIDIVTLLE, the abundance fitness is reported as -0.417 ± 0.062. MAIVADHLGLSWVELARELNFSVDEINQIRVENPNSLISQSFMLLKKWVTRDGKNATTDALTSVLTKINRIDIVTLLE showed an abundance fitness of -0.041 ± 0.055. MAIVADHLGLSWDELARELNFSVDEINQIRVENPNSLISQSFMLLKKWVTRDGKNATTDALTSVLTKINRIDIVTLLE gave an abundance fitness of -0.35 ± 0.18. MAIVADHLGLSWHELARELNFSVDEINQIRVENPNSLISQSFMLLKKWVTRDGKNATTDALTSVLTKINRIDIVTLLE showed an abundance fitness of -0.178 ± 0.11. MAIVADHLGLSWMELARELNFSVDEINQIRVENPNSLISQSFMLLKKWVTRDGKNATTDALTSVLTKINRIDIVTLLE gave an abundance fitness of -0.054 ± 0.071. Work on MAIVADHLGLSWNELARELNFSVDEINQIRVENPNSLISQSFMLLKKWVTRDGKNATTDALTSVLTKINRIDIVTLLE yielded an abundance fitness of -0.309 ± 0.19. MAIVADHLGLSWSELARELNFSVDEINQIRVENPNSLISQSFMLLKKWVTRDGKNATTDALTSVLTKINRIDIVTLLE gave an abundance fitness of -0.078 ± 0.057. In the case of MAIVADHLGLWWTELARELNFSVDEINQIRVENPNSLISQSFMLLKKWVTRDGKNATTDALTSVLTKINRIDIVTLLE, the abundance fitness is reported as -1.05 ± 0.25. Work on MAIVADHLGLSRTELARELNFSVDEINQIRVENPNSLISQSFMLLKKWVTRDGKNATTDALTSVLTKINRIDIVTLLE yielded an abundance fitness of -0.844 ± 0.12. MAIVADHLGLSCTELARELNFSVDEINQIRVENPNSLISQSFMLLKKWVTRDGKNATTDALTSVLTKINRIDIVTLLE showed an abundance fitness of -0.931 ± 0.28. Work on MAIVADHLGLSSTELARELNFSVDEINQIRVENPNSLISQSFMLLKKWVTRDGKNATTDALTSVLTKINRIDIVTLLE yielded an abundance fitness of -0.968 ± 0.15. Work on MAIVADHLGLSITELARELNFSVDEINQIRVENPNSLISQSFMLLKKWVTRDGKNATTDALTSVLTKINRIDIVTLLE yielded an abundance fitness of -0.738 ± 0.26. Work on MAIVADHLGLSTTELARELNFSVDEINQIRVENPNSLISQSFMLLKKWVTRDGKNATTDALTSVLTKINRIDIVTLLE yielded an abundance fitness of -1.1 ± 0.43. In the case of MAIVADHLGLSMTELARELNFSVDEINQIRVENPNSLISQSFMLLKKWVTRDGKNATTDALTSVLTKINRIDIVTLLE, the abundance fitness is reported as -0.844 ± 0.25. MAIVADHLGLSQTELARELNFSVDEINQIRVENPNSLISQSFMLLKKWVTRDGKNATTDALTSVLTKINRIDIVTLLE showed an abundance fitness of -0.534 ± 0.3. MAIVADHLGLSLTELARELNFSVDEINQIRVENPNSLISQSFMLLKKWVTRDGKNATTDALTSVLTKINRIDIVTLLE gave an abundance fitness of -0.838 ± 0.11. In the case of MAIVADHLGLSPTELARELNFSVDEINQIRVENPNSLISQSFMLLKKWVTRDGKNATTDALTSVLTKINRIDIVTLLE, the abundance fitness is reported as -0.433 ± 0.11. Work on MAIVADHLGLSVTELARELNFSVDEINQIRVENPNSLISQSFMLLKKWVTRDGKNATTDALTSVLTKINRIDIVTLLE yielded an abundance fitness of -0.753 ± 0.11. MAIVADHLGLSATELARELNFSVDEINQIRVENPNSLISQSFMLLKKWVTRDGKNATTDALTSVLTKINRIDIVTLLE gave an abundance fitness of -0.862 ± 0.16. In the case of MAIVADHLGLSETELARELNFSVDEINQIRVENPNSLISQSFMLLKKWVTRDGKNATTDALTSVLTKINRIDIVTLLE, the abundance fitness is reported as -0.903 ± 0.2.
